Data as given in US20110300156A1 (Genmab, published 2011).

T1: murine tissue factor (TF) on transfected HEK293F cells (murine, UniProt P20352 29-294)
T1 construct: whole, on cells; also called murine TF; TFmm
T1 sequence (looked up): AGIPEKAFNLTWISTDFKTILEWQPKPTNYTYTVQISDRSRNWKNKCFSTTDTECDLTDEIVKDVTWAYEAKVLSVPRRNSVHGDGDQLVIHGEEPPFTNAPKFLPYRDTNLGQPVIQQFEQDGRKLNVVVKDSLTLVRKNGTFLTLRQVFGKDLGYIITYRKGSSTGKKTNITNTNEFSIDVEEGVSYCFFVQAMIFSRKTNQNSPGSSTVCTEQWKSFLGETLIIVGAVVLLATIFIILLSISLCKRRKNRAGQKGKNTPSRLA

B1: anti-TF HuMab 025 (antibody, V domains shown)
VH: QVQLVESGGGVVQPGRSLRLSCAASGFTFSRYAMHWVRQAPGKGLEWVAVISNDGYNDYYADSVKGRFTVSRDNSKNTLYLQMNSLRAEDTAVYYCARDGQLGRGYFDYWGQGTLVTVSS
VL: EIVLTQSPATLSLSPGERATLSCRASQSVSSYLAWYQQKPGQAPRLLIYDASNRATGIPARFSGSGSGTDFTLTISSLEPEDFAVYYCQQRSNWPLTFGGGTKVEIK
notes: Human monoclonal antibody from HuMab mice
B2: anti-TF HuMab 111 (antibody, V domains shown)
VH: QVQLVESGGGVVQPGRSLRLSCAGSGFTFNRYAMYWVRQAPGKGLDWVAVISNDGINKYYADSVKGRFTISRDNSKNTLYLQMNSLRAEDTAVYYCARDHTMVRGAFDYWGQGTLVTVSS
VL: B1 VL
notes: as for B1
B3: anti-TF HuMab 114 (antibody, V domains shown)
VH: QVQLVESGGGVVQPGRSLRLSCVASGFTVSNDGMHWVRQAPGKGLEWVALIWYDGVNKNYADSVKGRFTISRDKSKNTLYLQMNSLRAEDTAVYYCARRPGTFYGLDVWGQGTTVTVSS
VL: not shown
notes: as for B1

Experiments:
[1] = target: T2, human tissue factor (TF), membrane-bound on cells (human, UniProt P13726 33-295); assay: FACS, A431 cells
T2 construct: whole, on cells; also called cellular TF
Protocol: (§1) Cells were resuspended in PBS (2×10⁶ cells/ml), put in 96-well V-bottom plates (50 μl/well). 50 μl of serially diluted HuMab in FACS buffer (PBS supplemented with 0.1% BSA and 0.02% Na-azide) was added to the cells and incubated for 30 minutes on ice. After washing three times with FACS buffer, 50 μl of phycoerythrin (PE)-conjugated goat anti-human IgGFc (Jackson ImmunoResearch), diluted 1:100 in FACS buffer, was added. After 30 minutes on ice (in the dark), cells were washed three times, and specific binding of the HuMabs was detected by flow cytometry on a FACSCalibur (BD Biosciences). HuMab-KLH was used as a negative control. Mouse anti-TF followed by PE-conjugated anti-mouse IgGFc was used as positive control. Binding curves were analyzed using non-linear regression (sigmoidal dose-response with variable slope) using GraphPad Prism V4.03 software (GraphPad Software, San Diego, Calif., USA).

[2] = target: T3, TFECDHis (extracellular domain of tissue factor, amino acid 1-251, with C-terminal His tag) (human, UniProt P13726 33-251); assay: SPR BIAcore 3000, HuMab immobilized, TFECDHis analyte
T3 construct: range 1-251; The stated range 1-251 starts at residue 1 of NP-001984; also called extracellular domain of TF
Protocol: (§2) Antibody binding to TF was analyzed by surface plasmon resonance in a BIAcore 3000 (GE Healthcare). TFECDHis was used for the analysis. HuMab antibodies (500 resonance units) were immobilized on the CM-5 sensor chip according to the procedure recommended by the manufacturer. Briefly, after surface activation by EDC and NHS HuMab antibody was injected over the activated CM-5 surface in 10 mM sodium-acetate, pH ranging from 4.0 to 5.5 at 5 μl/min. followed by 1 M Ethanolamine for deactivation. Concentration series of TFECDHis in HBS-EP buffer were injected over the immobilized antibodies at a flow rate of 30 μl/min for 180 sec. Regeneration of the HuMab surface was performed by injection of 10 mM Glycine-HCl pH 2.0 or 10 mM sodium acetate pH 3.0. Kinetic analysis was performed using double reference subtraction and model 1:1 (langmuir) binding analysis.

[3] = target: T2, human tissue factor (TF), …; assay: FACS, Bx-PC3 cells
Protocol: as §1

[4] = target: T3, TFECDHis (extracellular domain of …); assay: competition ELISA, inhibition of FVIIa (100 nM) binding to coated TFECDHis
Protocol: ELISA plates were coated overnight with TFECDHis (0.5 μg/mL, 100 μL per well). Plates were emptied, blocked with PBS containing 2% (v/v) chicken serum (1 hour, RT), and emptied again. […] Plates were washed and incubated with swine-anti-rabbit IgG-HRP antibody (1:2,500; DAKO). After washing, the immune complexes were visualized using ABTS as a substrate.

[5] = target: T2, human tissue factor (TF), …; assay: FACS, TF transfected CHO cells (S1015-TF)
Protocol: as §1

TF (Innovin) [6] = target: T4, TF (Innovin) (UniProt P13726 33-295, limits assumed); assay: cell-based or functional assay
[7] = target: T2, human tissue factor (TF), …; assay: cell-based or functional assay
[8] = target: T2, human tissue factor (TF), …; assay: FACS, MDA-MB-231 cells, 30 µg/mL
Protocol: as §1

[9] = target: T2, human tissue factor (TF), …; assay: FACS, Bx-PC3 cells, 30 µg/mL
Protocol: as §1

TF (Innovin) [10] = target: T4, TF (Innovin); assay: cell-based or functional assay; remark: listed apart in the source
[11] = target: T2, human tissue factor (TF), …; assay: FACS, A431 cells, 30 µg/mL
Protocol: as §1

[12] = target: T3, TFECDHis (extracellular domain of …); assay: ELISA, coated TFECDHis, mean of 3
Protocol: The specificity of the obtained anti-TF HuMabs was evaluated by ELISA. ELISA plates (Microlon; Greiner Bio-One) were coated overnight at +4° C. with 0.5 μg/mL of TFECDHis in PBS, pH 7.4. Coated ELISA plates were emptied and blocked for one hour at room temperature with 2% (v/v) chicken serum (Gibco, Paisley, Scotland) in PBS and washed with PBS containing 0.05% Tween 20 (PBST). Subsequently, HuMabs, serially diluted in PBSTC (PBS supplemented with 2% (v/v) chicken serum and 0.05% (v/v) Tween-20), were incubated for 1 hr at RT under shaking conditions (300 rpm). Bound HuMabs were detected using HRP-conjugated goat-anti-human IgG antibodies (Jackson ImmunoResearch) diluted 1:5,000 in PBSTC, which were incubated for 1 hr at RT under shaking conditions (300 rpm). […] HuMab-KLH (a human monoclonal antibody against KLH (keyhole limpet haemocyanin)), was used as a negative control. Mouse anti-human TF (ERL) was used as positive control (HRP labeled anti-mouse IgG as conjugate). Binding curves were analyzed using non-linear regression (sigmoidal dose-response with variable slope) using GraphPad Prism V4.03 software.

[13] = target: T2, human tissue factor (TF), …; assay: FACS, MDA-MB-231 cells
Protocol: as §1

[14] = target: T2, human tissue factor (TF), …; assay: cell-based or functional assay; remark: listed apart in the source
[15] = target: T1, murine tissue factor (TF) on …; assay: FACS on transfected HEK293F cells, 30 µg/mL antibody [panel E]
[16] = target: T2, human tissue factor (TF), …; assay: cell-based or functional assay; remark: listed apart in the source
[17] = target: T2, human tissue factor (TF), …; assay: FACS, TF transfected CHO cells (S1015-TF), 7.5 µg/mL
Protocol: as §1

[18] = target: T3, TFECDHis (extracellular domain of …); assay: SPR avidity format: TFECDHis immobilized, bivalent HuMab as analyte (printed as avidity nM)
Protocol: as §2
TF (TFECDHis) binding to TF-specific HuMabs was determined essentially as described above, with TFECDHis being immobilized on the CM-5 sensor chip (300 resonance units), and concentration series of Humab antibodies used for kinetic analysis. Kinetic analysis was performed using double reference subtraction and model 1:1 (langmuir) binding analysis.

[19] = target: T2, human tissue factor (TF), …; assay: FACS on AsPC-1 cells (~175.000 TF molecules/cell) [panel AsPC-1 cells]
Protocol: as §1
(§3) Binding of anti-TF HuMabs to membrane-bound TF on cell lines expressing different levels of TF was determined by FACS analysis, essentially as described supra. Mouse anti-TF antibody followed by PE-conjugated anti-mouse IgGFc was used as a positive control. Fluorescence was measured on a FACSCantoII. Binding curves were analyzed essentially as described supra, using GraphPad Prism 5 software. The amount of TF molecules on cell lines was determined by Qifi kit (Dako, Glostrup, Denmark), according to the manufacturer's instructions.

[20] = target: T1, murine tissue factor (TF) on …; assay: FACS on transfected HEK293F cells, 30 µg/mL antibody [panel N]
[21] = target: T2, human tissue factor (TF), …; assay: FACS on MDA-MB-231 cells (~900.000 TF molecules/cell) [panel MDA-MB-231 cells]
Protocol: as §1, §3

[22] = target: T1, murine tissue factor (TF) on …; assay: FACS on transfected HEK293F cells, 30 µg/mL antibody [panel O]

Binder | EC50 [1] | EC50 [3] | max inhibition [4] | EC50 [5] | IC50, inhibition of FVIIa induced IL-8 release (MDA-MB-231) [7] | max inhibition of FVIIa induced IL-8 release (MDA-MB-231) [7] | Max MFI [8] | Max MFI [9] | % max inhibition of FXa generation (TF (Innovin) [10]) | IC50, inhibition of FXa generation (TF (Innovin) [10]) | Max MFI [11] | EC50 [13] | EC50 of ADCC, A431 cells [14] | EC50 of ADCC, MDA-MB-231 cells [14] | % max inhibition of FVIIa induced ERK phosphorylation (A431) [16] | IC50, inhibition of FVIIa induced ERK phosphorylation (A431) [16] | Max MFI [17] | also measured
B1 | 5.19 nM | 0.88 nM | 90% | 0.73 nM | 23.1 nM | 75.6% | 2250 | 1320 | 19% | 0.3 nM | 3170 | 0.69 nM | 0.16 nM | 0.24 nM | 66% | 2.16 nM | 5810 | Kd [2]: 1.97 nM; IC50, inhibition of blood coagulation (TF induced clotting time) (TF (Innovin) [6]): 2.3 nM; EC50 [12]: 0.34 nM; EC50 of ADCC, Bx-PC3 cells [14]: 0.15 nM; binding result [15]: no binding (tested: 30 µg/mL)
B2 | 2.88 nM | 1.83 nM | 79% | 0.55 nM | > 200 nM | 40.1% | 1770 | 1130 | 7% | 0.07 nM | 3040 | 1.03 nM | 1.56 nM | 0.84 nM | 52% | > 66.6 nM | 5350 | Kd [18]: 0.11 nM; EC50 (read off the curve) [19]: ~0.1 µg/mL; binding result [20]: no binding (tested: 30 µg/mL); EC50 (read off the curve) [21]: ~0.06 µg/mL
B3 |  |  | 90% |  |  |  |  |  |  |  |  |  |  |  |  |  |  | binding result [22]: no binding (tested: 30 µg/mL)
